Laboratory results as given in patent publication US20180057888A1 (University of Texas, published 2018).

Target: RNA Polymerase II (RNAPII), phospho-Ser2 C-terminal domain (pS2-CTD) (UniProt P24928 1-1970)
Assay: co-immunoprecipitation with anti-c-myc antibody, Western blot for RNAPII
Procedure: Whole-cell lysates and nuclear extracts were prepared as previously described (Morales et al., 2014). See Supplementary Table S2 for a list of specific antibodies and dilutions used. Protein concentrations were determined by BCA Assay following manufacturer's instructions (Thermo Scientific). Normalized protein samples were separated on denaturing gradient gels (4-20% from BioRad) and were transferred to PVDF membranes for immunoblotting. After transfer, the membranes were first blocked with 1× Sigma Blocking Buffer for an hour at room temperature. The membranes were then incubated with the indicated primary antibodies diluted in 1× Sigma Blocking Buffer at 4° C. overnight. After this step, the membranes were washed with PBST (3×, 10 minutes each). HRP-conjugated secondary antibodies were diluted in 1× Sigma Blocking Buffer and incubated with the membranes at room temperature for 1 hr. […]
Log phase cells were plated in 10-cm dishes, and incubated after transfection with either empty pCMV-myc vector, myc-tagged wild-type K-H or myc-tagged mutant K-H (R106A) constructs for 48 hr using Lipofectamine 2000. […] Co-immunoprecipitated proteins (e.g., RNAPII) were analyzed by Western blot as previously described.

binding result: no binding
B1: myc-tagged mutant K-H (R106A) (other)
chain: MSSFSESALEKKLSELSNSQQSVQTLSLWLIHHRKHAGPIVSVWHRELRKAKSNRKLTFLYLANDVIQNSKRKGPEFTREFESVLVDAFSHVAREADEGCKKPLEALLNIWQERSVYGGEFIQQLKLSMEDSKSPPPKATEEKKSLKRTFQQIQEEEDDDYPGSYSPQDPSAGPLLTEELIKALQDLENAASGDATVRQKIASLPQEVQDVSLLEKITDKEAAERLSKTVDEACLLLAEYNGRLAAELEDRRQLARMLVEYTQNQKDVLSEKEKKLEEYKQKLARVTQVRKELKSHIQSLPDLSLLPNVTGGLAPLPSAGDLFSTD
notes: Expressed from a transfected myc-tagged construct and immunoprecipitated with anti-c-myc antibody; also called R106A mutant K-H; mutant R106A K-H; not shown: myc tag from the pCMV-myc vector
